The record followed here is paper doi:10.1101/2025.11.05.686883 (bioRxiv, 2025).

Read-outs that look alike come from different tables or passages of the source.

In assay [1] the target is T1, HCV-1 sE1E2.Cut1+2.SPYΔN-His6 (Hepatitis C virus genotype 1a, isolate …, UniProt P26664, stabilised). The assay can be described thus: negative-stain electron microscopy.
In a further assay the target is HCV-1 E1E2 (Hepatitis C virus genotype 1a, isolate …, UniProt P26664, strain). The assay can be described thus: ELISA.
For assay [2], the target named is T1, HCV-1 sE1E2.Cut1+2.SPYΔN-His6. In words: BLI. In general terms: In BLI a coated tip is dipped into the sample, and binding shifts an interference pattern.
The target of assay [3] is T2, H77 E1E2, wild type (Hepatitis C virus genotype 1a, isolate …). In words: ELISA. (An ELISA detects its analyte on a solid surface through an enzyme-linked reagent.)
The target in assay [4] is T1, HCV-1 sE1E2.Cut1+2.SPYΔN-His6. The assay can be described thus: BLI. The source holds these as a separate data set.
The target in assay [5] is T2, H77 E1E2, wild type. The assay can be described thus: ELISA. The source holds these as a separate data set.

B1: AR4A Fab (Fab, V domains shown)
VH: VQLLEQSGPEVKKPGDSLRISCKMSGDSLVTTWIGWVRQKPGQGLEWMGIINPGDSSTNIYPGDSATRYGPSFQGQVTISIDKSTSTAYLQWNNVKASDTGIYYCARHVPVPISGTFLWREREMHDFGYFDDWGQGTLVIVSS
VL: ELTLTQSPGTLSLSPGERATLSCRASQSVSNNYLAWYQQKPGQAPRLLIYGASSRATGIPDRFSGSGSGTGFTLIISRLEPEDFAVYYCQQYGSSSITFGQGTRLEIK
With B1, in assay [1], the binding result was “binds”.

B2: AR4A (IgG) (antibody, V domains shown)
VH: VQLLEQSGPEVKKPGDSLRISCKMSGDSLVTTWIGWVRQKPGQGLEWMGIINPGDSSTNIYPGDSATRYGPSFQGQVTISIDKSTSTAYLQWNNVKASDTGIYYCARHVPVPISGTFLWREREMHDFGYFDDWGQGTLVIVSS
VL: ELTLTQSPGTLSLSPGERATLSCRASQSVSNNYLAWYQQKPGQAPRLLIYGASSRATGIPDRFSGSGSGTGFTLIISRLEPEDFAVYYCQQYGSSSITFGQGTRLEIK
With B2, the binding result (with HCV-1 E1E2; in assay [2]) was “binds” throughout.

B3: K400 Fab (Fab, V domains shown)
VH: EVQLVQSGAEVKTPGASVRVSCTASGDTFTNHDIHWVRQAPGQGLEWMGGMNADSGKTAYAQKFQGRVSMTINTPTNTAYMDLSSLRSEDTALYYCARGDGLDFTLFGVAHYSYYNGVGVWGHGTTITVSS
VL: EIVMTQSPLALPVTPGEPASIFCKSSHSLLHYNGYTYLDWYLQKPGQSPQLLIYLGSNRASGVPDRFSGSGSGTEFTLKISRVEAEDVGVYYCMQALQTPITFGQGTRLEIK
As for B3, the binding result in assay [1] is given as “binds”.

B4: K400 (antibody) (antibody, V domains shown)
VH: EVQLVQSGAEVKTPGASVRVSCTASGDTFTNHDIHWVRQAPGQGLEWMGGMNADSGKTAYAQKFQGRVSMTINTPTNTAYMDLSSLRSEDTALYYCARGDGLDFTLFGVAHYSYYNGVGVWGHGTTITVSS
VL: EIVMTQSPLALPVTPGEPASIFCKSSHSLLHYNGYTYLDWYLQKPGQSPQLLIYLGSNRASGVPDRFSGSGSGTEFTLKISRVEAEDVGVYYCMQALQTPITFGQGTRLEIK
On to B4, for which the binding result is given as “binds” in the assay with H77 E1E2, wild type [3] and “binds” in the assay with HCV-1 E1E2.

B5: K595 Fab (Fab, V domains shown)
VH: EVQLLESGGGLVQPGGSLRLSCAASGFTFSNYVMTWARQAPGKGLEWVSSISDSGGNADYAHSVRGRFTISRDNSKNTLFLHMNSLRVEDTAVYHCAKALIAPGSLFRDQLLNWFDFWGQGTRVTVSS
VL: DIQMTQSPSTLSASVGDRVTITCRASQSIGNWLAWYQQKPGKAPKLLIYQASTLKSGVPSRFSGSGSGTEFSLTISSLQPDDLATYFCQQYNGSPLTFAGGTKVEIK
On to B5, for which, in assay [1], the binding result is recorded as “binds”.

B6: K595 (antibody) (antibody, V domains shown)
VH: EVQLLESGGGLVQPGGSLRLSCAASGFTFSNYVMTWARQAPGKGLEWVSSISDSGGNADYAHSVRGRFTISRDNSKNTLFLHMNSLRVEDTAVYHCAKALIAPGSLFRDQLLNWFDFWGQGTRVTVSS
VL: DIQMTQSPSTLSASVGDRVTITCRASQSIGNWLAWYQQKPGKAPKLLIYQASTLKSGVPSRFSGSGSGTEFSLTISSLQPDDLATYFCQQYNGSPLTFAGGTKVEIK
With B6, the binding result in the assay with HCV-1 E1E2 is “binds”.

B7: RM3-26 (IgG) (antibody, V domains shown)
VH: QLQLQESGPGLVKPSETLSLTCIVSGGSISGYSWNWIRQPPGKGLEWIGNIFSGGDDANYNPSLKSRVTLSVDTSKNHFSLRLSSVTAADTAVYYCARHSAGFITGRYFELWGQGALVTVSS
VL: DIQMTQSPSSLSASLGDRVTITCRANQDISSSLAWYQQKPGKAPKPLIYYASNLESGVPSRFRGSGSGTEFTLTISSLQSEDFAVYYCQQYNSDPLTFGGGTKVEIK
Consider B7, for which the binding result in assay [4] is given as “binds”.

B8: RM3-26 variant, light chain CDRL3 Y91 to alanine, wild-type heavy chain (antibody, V domains shown)
VH: QLQLQESGPGLVKPSETLSLTCIVSGGSISGYSWNWIRQPPGKGLEWIGNIFSGGDDANYNPSLKSRVTLSVDTSKNHFSLRLSSVTAADTAVYYCARHSAGFITGRYFELWGQGALVTVSS
VL: DIQMTQSPSSLSASLGDRVTITCRANQDISSSLAWYQQKPGKAPKPLIYYASNLESGVPSRFRGSGSGTEFTLTISSLQSEDFAVYYCQQANSDPLTFGGGTKVEIK
In the case of B8, the binding result in the assay with H77 E1E2, wild type [5] is reported as “binds”.

B9: RM3-26 variant, heavy chain CDRH3 T100a to alanine, wild-type light chain (antibody, V domains shown)
VH: QLQLQESGPGLVKPSETLSLTCIVSGGSISGYSWNWIRQPPGKGLEWIGNIFSGGDDANYNPSLKSRVTLSVDTSKNHFSLRLSSVTAADTAVYYCARHSAGFIAGRYFELWGQGALVTVSS
VL: DIQMTQSPSSLSASLGDRVTITCRANQDISSSLAWYQQKPGKAPKPLIYYASNLESGVPSRFRGSGSGTEFTLTISSLQSEDFAVYYCQQYNSDPLTFGGGTKVEIK
With B9, the binding result with H77 E1E2, wild type [5] is recorded as “no binding (tested: 1 µg/mL (methods))”.

B10: RM3-26 variant, heavy chain CDRH3 Y100d to alanine, wild-type light chain (antibody, V domains shown)
VH: QLQLQESGPGLVKPSETLSLTCIVSGGSISGYSWNWIRQPPGKGLEWIGNIFSGGDDANYNPSLKSRVTLSVDTSKNHFSLRLSSVTAADTAVYYCARHSAGFITGRAFELWGQGALVTVSS
VL: DIQMTQSPSSLSASLGDRVTITCRANQDISSSLAWYQQKPGKAPKPLIYYASNLESGVPSRFRGSGSGTEFTLTISSLQSEDFAVYYCQQYNSDPLTFGGGTKVEIK
In the case of B10, the binding result in the assay with H77 E1E2, wild type [5] was “no binding (tested: 1 µg/mL (methods))”.

B11: RM3-26 variant, heavy chain CDRH3 R100c to alanine, wild-type light chain (antibody, V domains shown)
VH: QLQLQESGPGLVKPSETLSLTCIVSGGSISGYSWNWIRQPPGKGLEWIGNIFSGGDDANYNPSLKSRVTLSVDTSKNHFSLRLSSVTAADTAVYYCARHSAGFITGAYFELWGQGALVTVSS
VL: DIQMTQSPSSLSASLGDRVTITCRANQDISSSLAWYQQKPGKAPKPLIYYASNLESGVPSRFRGSGSGTEFTLTISSLQSEDFAVYYCQQYNSDPLTFGGGTKVEIK
For B11, the binding result in the assay with H77 E1E2, wild type [5] was “binds”.

B12: RM3-26 variant, light chain CDRL2 Y50 to alanine, wild-type heavy chain (antibody, V domains shown)
VH: QLQLQESGPGLVKPSETLSLTCIVSGGSISGYSWNWIRQPPGKGLEWIGNIFSGGDDANYNPSLKSRVTLSVDTSKNHFSLRLSSVTAADTAVYYCARHSAGFITGRYFELWGQGALVTVSS
VL: DIQMTQSPSSLSASLGDRVTITCRANQDISSSLAWYQQKPGKAPKPLIYAASNLESGVPSRFRGSGSGTEFTLTISSLQSEDFAVYYCQQYNSDPLTFGGGTKVEIK
Turning to B12, in the assay with H77 E1E2, wild type [5], the binding result is given as “binds”.

B13: RM3-26 variant, heavy chain CDRH1 Y32 to alanine, wild-type light chain (antibody, V domains shown)
VH: QLQLQESGPGLVKPSETLSLTCIVSGGSISGASWNWIRQPPGKGLEWIGNIFSGGDDANYNPSLKSRVTLSVDTSKNHFSLRLSSVTAADTAVYYCARHSAGFITGRYFELWGQGALVTVSS
VL: DIQMTQSPSSLSASLGDRVTITCRANQDISSSLAWYQQKPGKAPKPLIYYASNLESGVPSRFRGSGSGTEFTLTISSLQSEDFAVYYCQQYNSDPLTFGGGTKVEIK
With B13, the binding result with H77 E1E2, wild type [5] is reported as “binds”.
